In article PMC9729196, “An in silico method to assess antibody fragment polyreactivity” (Nature Communications, 2022):
Where a chain is given by its changes, count along the chain named. In names and notes the source's numbering stands. Like-named read-outs stand apart in the source and are kept apart here.

T1: wild-type human FLAG-AT1R (angiotensin II type 1 receptor) (human, UniProt P30556 1-359)
T1 chain: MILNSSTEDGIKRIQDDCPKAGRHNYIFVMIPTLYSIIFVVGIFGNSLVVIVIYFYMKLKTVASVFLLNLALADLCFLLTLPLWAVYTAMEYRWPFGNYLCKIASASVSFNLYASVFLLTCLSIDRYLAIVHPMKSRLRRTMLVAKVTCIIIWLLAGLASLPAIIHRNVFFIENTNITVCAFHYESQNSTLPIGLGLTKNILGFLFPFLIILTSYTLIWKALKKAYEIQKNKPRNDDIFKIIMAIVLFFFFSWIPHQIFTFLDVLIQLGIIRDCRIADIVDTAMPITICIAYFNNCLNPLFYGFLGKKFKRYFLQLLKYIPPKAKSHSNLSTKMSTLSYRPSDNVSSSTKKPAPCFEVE

B1: F10' (VHH)
VHH: QVQLVESGGGLVQAGGSLRLSCAASGSTFWWYAMGWYRQAPGKERELVATISRGGSTNYADSVKGRFTISRDNAKNTVYLQMNSLKPEDTAVYYCARKTRDIRLDYWGQGTQVTVSS
B2: AT118i4h32 G26D^27 T57I^65 (VHH)
VHH: EVQLVESGGGLVQPGGSLRLSCAASDYIYRRYRMGWYRQAPGKGREFVAAISGGSSINYADSVKGRFTISRDNSKNTVYLQMNSLRAEDTAVYYCAAYRIVSDPRVYWGQGTQVTVSS
notes: as the chain of m1 with the two stated substitutions; its own crystal structure is one of PDB 7T83 and 7T84 (crystallised construct: N-terminal Met-Ala, C-terminal His tag); the superscripts are IMGT numbers; also called G26D^27 T57I^65 variant; source: E. coli BL21(DE3), pET26b, purified (Protein A, Ni-NTA); not shown: V5, C-terminal, kept; His6, C-terminal, kept
B3: AT118i4h32 T57I^65 (VHH)
VHH: B2 VHH with D26G
B4: AT118i4h32 G26D^27 (VHH)
VHH: B2 VHH with I57T
B5: AT118i4h32 T57D^65 (VHH)
VHH: B2 VHH with D26G, I57D
notes: as the chain of m1 with the stated substitution; the superscript is the IMGT number; also called T57D^65 substitution; source: E. coli BL21(DE3), pET26b, purified (Protein A, Ni-NTA); not shown: V5, C-terminal, kept; His6, C-terminal, kept
B6: AT118i4h32 (VHH)
VHH: B2 VHH with D26G, I57T
notes: coordinates of the AT118i4h32 structures are deposited as PDB 7T83 and 7T84 (the crystallised construct has an N-terminal Met-Ala and a C-terminal His tag); humanised form of AT118 (eleven substitutions towards human VH3-23); Nanobody antagonist of AT1R from a synthetic library, humanised; also called WT AT118i4h32; wild-type nanobody; source: E. coli BL21(DE3), pET26b, purified (Protein A, …)

Tests used:
insulin = insulin (Homo sapiens (assumed; ), UniProt P01308)
Sequence of insulin (F8WCM5 25-54, chain 1 of 2): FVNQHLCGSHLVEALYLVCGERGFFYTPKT
Sequence of insulin (P01308 90-110, chain 2 of 2): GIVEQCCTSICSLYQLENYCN

[1] = target: T1, wild-type human FLAG-AT1R (angiotensin …); assay: FACS
[2] = target: T2, wild-type human FLAG-AT1R (angiotensin II type 1 receptor) (Homo sapiens, UniProt P30556); assay: radioligand binding; competition of nanobody with 2 nM [3H]-olmesartan on membranes of FLAG-AT1R cells; 50 mM Tris pH 7.4, 12.5 mM MgCl2, 150 mM NaCl, 0.2% BSA, 90 min, room temperature; Ki from a one-site competition model; conditions: one partner purified
T2 construct: angiotensin II type 1 receptor (AT1R), human, wild type; Cells were gated with the M1 anti-FLAG antibody; also called angiotensin II type I receptor; source: Expi293F TetR cells, stably transfected (pCDNA Zeo-TetO), induced with doxycycline; on cells, or in cell membranes prepared from them

[3] = target: T1, wild-type human FLAG-AT1R (angiotensin …)
[4] = target: T2, wild-type human FLAG-AT1R (angiotensin …); assay: flow cytometry on cells; Expi293F cells expressing FLAG-AT1R stained with 20 nM nanobody (C-terminal V5), 1 h, 4 °C, 20 mM Hepes pH 7.4, 150 mM NaCl, 0.1% BSA; detected with Alexa 647 anti-V5; gated for M1 anti-FLAG-positive singlets; conditions: one partner purified
[5] = target: T1, wild-type human FLAG-AT1R (angiotensin …); assay: [3H]-olmesartan competition, membranes

Binder	Kd [1]	Ki [3]	also measured
B1			binding result (insulin): binds
B2	54 nM	79.4 nM	binding result [2]: binds
B3		64.6 nM	
B4		70.8 nM	
B5			fold decrease of binding against the wild type [4]: 2 fold
B6	58.3 nM		Ki [5]: 72.4 nM; binding result [4]: binds
